Assay results as given in the DeepSol protein solubility set.

Assay: soluble on expression in E. coli; label from the status in PepcDB or PDB records

MSDPRAPRLCVLIDADNVPANYAEAIFEEIAALGEASVRRIYGDWSAMRLNAWAKKVAALGLVADQQFSNTKGKNASDIGLVISAMDFLHSGLFDGFVLVSSDSDFTRLAARIREQGLDVYGIGEKKTPEAFRMACKRFIYVENLGSDEPPAREPRPADEPQQPPAQRGREKEEPMKAIPLIAAAMRAIDPEGEWYSLGQIGQFITQANPDFDTRTYGSAKLSDLIKKISRFEVKPGPGGQLLARDIALEHHHHHH
soluble on expression in E. coli: not soluble

MSLGNAFIALDFETANGKRTSICSVGMVKVVNNEIVESFYTLVNPFDYFSQTNIEVHGITPEDVIDAPSFEYVFPYMMQFIDKLPVVAHNAAFDMNVLHQSLKQLNIETPSMIYFCSYQLAKRTIDAYRYGLKHLMKHYKLDFHGHHDALNDAKACAMITFRLLKHYDNLQSMLQIYGKNLKEGHHHHHH
soluble on expression in E. coli: not soluble

MSLTKVSSLGYPRLGENREWKKLIEAYWAGKVSKNDLFAGAKELRLDFLKKQLNAGLDLIPVGDFSLYDHILDLSVQFNIIPKRFAKEPIDIDLYFAIARGNKENVASSMKKWFNTNYHYIVPEWSKQRPKLNNNRLLDLYLEAREVVGDKAKPVITGPITYVALSTGVEDFTAAVKSLLPLYKQVFTELVKAGASYIQVDEPIFVTDEGKDYLQAAKAVYAYFAKEVPDAKFIFQTYFEGLIDSQVLSQLPVDAFGLDFVYGLEENLEAIKTGAFKGKEIFAGVIDGRNIWSSDFVKTSALLETIEEQSAALTIQPSCSLLHVPVTTKNETDLDPVLRNGLAFADEKLTEVKRLAEHLDGREDPAYDLHIAHFDALQAADFRNVKLEDLSRVATKRPSDFAKRRDIQQEKLHLPLLPTTTIGSFPQSREIRRTRLAWKRGDISDAEYKQFIQAEIERWIRIQEDLDLDVLVHGEFERVDMVEFFGQKLAGFTTTKFGWVQSYGSRAVKPPIIYGDVQHLEPITVEETVYAQSLTDRPVKGMLTGPITITNWSFERTDIPRDQLFNQIGLAIKDEIKLLENAGIAIIQVDEAALREGLPLRKSKQKAYLDDAVHAFHIATSSVKDETQIHTHMCYSKFDEIIDAIRALDADVISIETSRSHGDIIESFETAVYPLGIGLGVYDIHSPRVPTKEEVVANIERPLRQLSPTQFWVNPDCGLKTRQEPETIAALKVLVAATKEVRQKLGNEGHHHHHH
soluble on expression in E. coli: soluble

MSLMNAEQGVCAWAMNHPLEREYHDKEWGRAVHDDTKLFEFLTLEGAQAGLSWLTVLKKREGYRQAFLGYDLQRLAQCDESHVEQIIAEYDVVKHRGKIASVFSNARAALALQQEFGSLDAALWQFVGGQPKINRWVSMSDVPASTEESKAMSKFLKKRGFKFVGETICYAFMQACGLVNDHLVGCPNHSNADKLEGGSHHHHHH
soluble on expression in E. coli: soluble

MRLEECRKRLEELEAAREELLKVLREMRIHSTKSIALIHAGKVEEAEQELKKAIELLEKVKAYREYPEIYFYLCNDAMQELVEAIAFKNAISGEFTFEIDLEVTPAAFLNGFADAVGELRRYALTKLIEGDFKSAERMLEVMEKIYERLMEFTTFPDKLVSGLRKKLDVARGGIERTKSDYIAAKVARLNESLGGN
soluble on expression in E. coli: not soluble

MGSDKIHHHHHHAGVVVPKYTPSTENPGGPGEEPGDGLIDPAEPLDRGFMHLKGRELKSLNSISITGLNDGEKVILSTLAGLAARVTGDQVYINEGGPSSVWLKQMQNKYGIPVNTYNALAPLVQHYVETGVIKGYIVYTPYSEGQSHSINVATSLCGLLRGIAVPESLVDKVKAMGVTTELMDVRSYDEKWLYENYKDQLDKSLAADMKPEIFHHLRDYITMTNAFAFYDYNARRDWSWRTSILKDLDKGAYCFGYYDLDEWGMVNNASQLGVSMLPTDQAANLATLSSIYDTTGLKQRPATKEVVTEENVHYVTFLVSDGDNIAFNLWGQQGYMDHDLHGQFPLGYTISPSLYDLAPAALRWYYENSKEGDYFVAGPSGSSYIFPSKMSDADLDDYLAKLNEYVDKSGLNICNILDQKIMDNPKVYNKYLAQPNIDAIFYTGYGEKGDGRIKFSDNGKPVIEQRSVLWEGIDGGSNRGEESTVISQINSRSANPHSADGYTFVFVHCWTKNQQSIKTVIDGLNDNVRVVPVDQFVQLVKQNLGPK
soluble on expression in E. coli: not soluble

MIPIEIDSGSGFCFGVVNAIRHAEKQLEKSSDKLYCLGDIVHNTLEVERLGKKGLETIDYDAFSRLRGAKVLLRAHGEPPEIYRMAGENGVTIIDATCPVVLRLQNKIKSRYEATRSLGAQVVIYGKRGHAEVNGLVGQTEGTAIVIESEEELDKIDYTRPVILFSQTTKSLEGFGQIIDSISTRMQPGVTFEHHDTICRQVANRIPHIGAFATAHELVFFVAGEKSSNGKVLFGHCLAANPRSIFISSPEVIVPDMLVPLPASIGICGATSTPRWQMEEVASHIKALLLEHHHHHH
soluble on expression in E. coli: soluble

MSFVQPGLAQEKERMWRTLTVSGRGVESIPTTLSEVSLGVEIQGKTAQEVQHEAARRSSAVVALLKSRNVEKLQTTGIRLNPVYSYNNNVQRITGYAASNTVNFRIATEKAGTLLDEAVKAGATQINGISFVATDEAIASARQQALKEATQDAQQQASAVFSSLGFQAKEVVSIQVGGATAPPPPILYRAEAAKLSSADASTPVIGGEQQVEASVTLQISYLEHHHHHH
soluble on expression in E. coli: soluble

MGSDKIHHHHHHMKPNNWVSSSQATELLSKQLVTWPLAEKNYKALEAVQVKSFDMGGFSIRAQFNPARIVSTGAKVDARSLKERKCFLCPENLPVEQERLPFGFRHLVLCNPYPIFPQHFTIPTRKHTPQLILPQWNDFLELTRRLAPFTVFYNGPRSGASAPDHAHFQAVTRGIMPLDEEVTQFIRQSYASVYDNRIYPLTGNLRPGLVIQAATEEAATRLFKKIYAALPILPGEPEPMMNIFGSYYDNNWVITVIPRKRHRPWQYEAEGNDHLLSSPGAADIGGLFITPLEKDFKKINPELLRDVYQQVCLNDRDVEEIFVHLSSN
soluble on expression in E. coli: not soluble

MRNAHAVEAMRVPHPVRGTVSLVEWHMARARNHINVLEENMTLLMEQAHANESLFYRLLHLQSRLVAADSLDEMLVRFHRWARDLGLAGATLRLFPDRWRLGAPSRYTHLALNRQAFEPLRIQRLGQSQHYLGPLNGPELLVVLEHHHHHH
soluble on expression in E. coli: soluble

MLTLENQIKEEREQDNSESPNGRTSPLVSQNNEQGSTLRDLLTTTAGKLRVGSTDAGIAFAPVYAMGAPSSKSGRTMPNILDDIIASVVENKIPPSKTSKINVKPELKEEPEESIISAVDENNKLYSDIPHSWICEKHILWLRIIRIAVIGSFSKNVGNKDSLQWFLVCIRKLEHHHHHH
soluble on expression in E. coli: not soluble

MHHHHHHMKEIATEYSFIKYTELELDDNGSIKQLSIPNKYNVIYAIAINDELVYIGKTKNLRKRINYYRTAINRKDKTSDSTKSALIHSALKEGSKVEFYARQCFNLSMTNELGTMTIATIDLEAPLFIKLFNPPWNIQHKKK
soluble on expression in E. coli: soluble

PLGSDGLPLDPRDWTRADVWKWLINMAVSEGLEVTAELPQKFPMNGKALCLMSLDMYLCRVPVGGKMLYRDFRVRLARAMSR
soluble on expression in E. coli: soluble

MFDYTDFPEQRQSKIRLILSEEGKVVCTQLSRELNVSEHTIRRDLKELAQSGACKRVYGGAVSLPPEAIDFASRATIDAAQKDRIAQAVIPLIKPNGCVFFDTGTTNLAVAKQIPAGLKFTAVCNSPIIAAELMQHQDVEVIVLGGRIQKEVGGAIGIDTLRQLEKMYFDQCLLGGCAFDANEGLTVFEYDDAEFKKCLVTRSSEVIVALTANKISALTRYRVAECDEITTLVTDDEISPASQSVLKEKNLDVIIARLEHHHHHH
soluble on expression in E. coli: soluble

EMYHHKKVLVLGLARSGVSAATIMHKLGAFVTVNDQKPFSENPEAQGLLEQGIKVICGSHPIELLDEGFELVIKNPGIPYNNPMIEKALKLKIPVI
soluble on expression in E. coli: not soluble

MDVFDGLPDPIIVDILNKVGDVKTLLRCSSLSKRFNSLVPQSESLTLRLDHSVSDSPVVTSIFRSLFNGLVSLLSKPAKPITITTLSPSLPFKILSRFDRIRNLDVELPGGDVKLEKGAAVKWKAEFGKTLKSCVIVAFRSAGTVSSPVAVEGESDAEFVTGLKTRVVWTISALMAASSRHYLMREVVKEHEEIESLVMRDKEREGTVVMNEEGLKELRNTEARVEDEERVVKNKRSVVPSVRMSMRHAPSLKLKSGICLESATLVIVRPSGADFEVGDDAELATEAFVGDCMYGEAVVALLKCKKNALEMNSF
soluble on expression in E. coli: not soluble

MSLKEAIVERIVNKLNENQKEKIGVELPSGKRIPEFPVSHLIRFKTWKSLDYVLKDPEMGFGEGYMNGDIEVEGDLEEVIKRGMTLFKDTRKFEKLFGILRHVPLFRTIRDERNVKHHYDLGNDFYRLWLDKSMTYSCAFFEDPSMSIDEAQSLKRRIIYEKLQLKEGDTLLDIGCGWGSIILESAELYNVKSVGITLSDNQYEYVKEEIKKRGLQDKVEVYKLHYVDLPKLGRKFNKVVSVGMFEHVGKENYETFFNTVYKVMEEGGLFLLHTIGKLHPDTQSRWIRKYIFPGGYLPSISEIVESFRDMDFTLIDFDNWRMHYYWTLKKWKERFYENLDKIRNMFDDRFIRMWELYLTASAVSFLIGSNYVFQILLSKGVKDDYPVIKREFSGVLFKEGHHHHHH
soluble on expression in E. coli: not soluble

MSLVSLPGLPAMISEISKRNNLPTTAVEEALREALLKGYERFRRSQLMGHQFPEEYFNNFEVELDTEEEGFRVLSTKRIVEEVENSDQQISLKEVLEVAEEAQLGDEVVLDVTPEQKDFGRMAAIQTKQVLLQKLRDQQRKIIQEEFQDLEGTVLNARALRFERQSIIVAVQSSFGQPEVEAELPKREQLPNDNYRANSTFRVYLKRVREGSQRGPQLVVSRAAAGLVVDLFSVEVPEIEEEVVRIVAVAREAKPPSPSVGPRTKIAVDTLERDVDPVGACIGARGSRIHAVVNELRGEKIDVIRWSPDPATYIAQALSPARVDQVYLIHAEERHALVIVAEDQLSLAIGKEGQNVRLAARLTGWKIDIKDPETYARDKEAIEQSILERAAASAQARAEREAAEQEAQAKLEAEMAALEAEEAEELEETPEAIAEVEEEVEEWDQDQGPELGEEEELSLEHHHHHH
soluble on expression in E. coli: soluble

TPGDRTGTSKCRKAGCVYFGTPENKGFCTLCFIEY
soluble on expression in E. coli: soluble

VKNFEWKTIFNWSKNNSMVESLPEGIDKIQIGSGVYNVKSYAEVGKPYGAIYAKTFKRDAEGYILCQLDGSPKEGQDYEYLGCVQADWRGGWNNVFRLGNFSFSVMFDFQKGGKFFSQTSIQSSVDGQSVKSLEGRDADFFSRKILGESDEERYGFMRPQNANTPTANGQIYPDWGRPKGVVLPNCRYDEDVEGLAGQQVLGYCTPERYWMHYTSRDISRFIYDASYVKLREITVSYDLPKKWLRKTPFQTFRVAAVGRNIATLFANTPHGLDPQATSTTGNAQGFERGFNLPSATYGFDIKVSF
soluble on expression in E. coli: not soluble

MTDICMLKTMDSRNTNEAKQEPKTMVWWDINSCPVPDGYDARMVAHSIESELKKAGYPGPLTITAIGYLNTPLMCM
soluble on expression in E. coli: not soluble

MYGAVVVAGDHQRGAGVGMLRTRKLAQVAEINVVKSLDYLRLWHPILQNLRGRDFPTIELLLLRWRPARSAPPLSPPRTQDFENPWSPKSHRTALPWVFVFLSSRSRDRGPKNPTRAQWVPMNR
soluble on expression in E. coli: not soluble

MGSDKIHHHHHHMHFYRSLGPIRAITFDLDDTLYDNADVIRRTGQESIRFLQEYHPALRDFQADDFQNLRQTLLEREPDIYHDVTEWRRRAVELAMLDRGLSAAESKDGAKAAMENFAHWRSQIAITEETHQTLAALAEKVPLAAITNGNAEPHRFGLERYFSFILRAGPHGRAKPFDDMYHLAAEKLNLPLHEILHVGDDLTTDVAGSIRCGMQACWINLREGSLTQIGDARLLPHIEISRLASLSALL
soluble on expression in E. coli: not soluble
